Residue numbers refer to the chain shown, from its start. Where “and” joins values, the source holds several entries; their conditions need not be identical. Equal entries are not always repeated.
T1: MUC1 peptide (non-glycosylated), biotinylated (N-terminal Biotin-PEG2; C-terminal amide)
T1 construct: also called 36-4; 7-36-4
T1 peptide: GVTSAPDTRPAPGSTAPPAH

B1: humanised anti-TnMUC1 scFv protein 13P16 (97A), L2-H3 (scFv)
scFv: DIVMTQSPDSLAVSLGERATINCKSSQSLLNSGDQKNYLTWYQQKPGQPPKLLIFWASTRESGVPDRFSGSGSGTDFTLTISSLQAEDVAVYYCQNDYSYPLTFGQGTKLEIKGGGGSGGGGSGGGGSGGGGSQVQLVQSGAEVKKPGSSVKVSCKASGYTFTDHAIHWVRQAPGQGLEWMGHFSPGNTDIKYNDKFKGRVTITADKSTSTAYMELSSLRSEDTAVYYCKTSTFFFDYWGQGTTVTVSSAAAHHHHHH
notes: Supernatant of construct 6D16 in the Octet assay; purified 13P16 elsewhere. scFv of CAR MB024; also called 6D16
B2: humanised anti-TnMUC1 scFv protein 11P6 (89A), L0-H5 (scFv)
scFv: B1 scFv with F55Y, M181I, V201A, I203L, A205V, K207R, Y228F
notes: Supernatant of construct 6D6 in the Octet assay; purified 11P6 elsewhere; also called 6D6
B3: humanised anti-TnMUC1 scFv protein 13P18 (19A), L2-H5 (scFv)
scFv: B1 scFv with M181I, V201A, I203L, A205V, K207R, Y228F
notes: Supernatant of construct 6D18 in the Octet assay; purified 13P18 elsewhere. scFv of CAR MB025; also called 6D18
B4: humanised anti-TnMUC1 scFv protein 9P1 (88A), VL-VH humanised control (scFv)
scFv: B1 scFv with F55Y, L110V, P147T, G177A, I203L, A205V, K207R, T209M, V226M, T244M
notes: Control scFv designed from a humanised antibody of WO2015/159076 (10D2 is said to come from Ab2, so 10D1 by implication from Ab1); Neat supernatant of construct 10D1 in the Octet assay; purified protein 9P1 in Biacore and flow cytometry; also called 10D1
B5: humanised anti-TnMUC1 scFv protein 16P4 (82A), L0-H3 (scFv)
scFv: B1 scFv with F55Y
notes: Supernatant of construct 6D4 in the Octet assay; purified 16P4 elsewhere. scFv of CAR MB021; also called 6D4
B6: humanised anti-TnMUC1 scFv protein 13P24 (77A), L3-H5 (scFv)
scFv: B1 scFv with D1E, I2L, M181I, V201A, I203L, A205V, K207R, Y228F
notes: Two purification lots (13P24, 28P24); also called 28P24; 6D24
B7: humanised anti-TnMUC1 scFv protein 11P12 (94A), L1-H5 (scFv)
scFv: B1 scFv with D1E, I2L, F55Y, M181I, V201A, I203L, A205V, K207R, Y228F
notes: Supernatant of construct 6D12 in the Octet assay; purified 11P12 elsewhere; also called 6D12

What follows are binders tested against T2, TnMUC1 peptide 1 (partially glycosylated), biotinylated (assay: SPR (Biacore T200): biotinylated TnMUC1 peptide 1 (96-1) captured on CAP chip, scFv as analyte).
T2 construct: also called 96-1; 32A

Kd [nM] | koff [s⁻¹] | kon [M⁻¹ s⁻¹] | Binder
231 | 0.00635 | 27500 | B1

Target: T1, MUC1 peptide (non-glycosylated), …
Assay: SPR (Biacore T200): biotinylated peptide captured on CAP chip, scFv as analyte

binding result | Binder
no binding | B1

Each binder was assayed against T3, TnMUC1 peptide (fully glycosylated), biotinylated (assay: SPR (Biacore T200), peptide 36-2 on CAP chip, scFv as analyte, 1:1 fit; single run).
T3 construct: Two batches (36-2 and 65-1) of the same peptide; also called 36-2; 7-36-2
Experimental: (§1) Biotin CAPture Reagent was captured onto the active and reference flow cells for 300 seconds at 2 μl/min. The biotinylated peptides were diluted in BIAcore Running Buffer (as described above) and captured onto the active flow cell only, at a flow rate of 10 μl/min to obtain the capture level calculated in the equation detailed above.
(§2) The humanised anti-TnMUC1 scFv proteins were passed over the reference and active flow cells at 500, 125, 31.25, 7.8, 1.9, 0 nM for binding to TnMUC1 and MUC1 peptides with a 300 second association followed by a 900 seconds dissociation with BIAcore Running Buffer at a flow rate of 30 μl/min.
(§3) BIAcore T200 Evaluation Software v3.0 was used to analyse the data. The data obtained has been fitted to a 1:1 binding model with the Rmax parameter set to local. As this is a capture experiment, a local Rmax parameter would be truly reflective as the protein is recaptured every time and theoretically surface is slightly different at each recapture, possibly producing slightly different capture each time. Kinetic Parameters (KD, kd and kₐ) were calculated for all the humanised anti-TnMUC1 scFv proteins.

Kd | koff | kon | Binder
25.7 nM and 27.6 nM | 0.00138 s⁻¹ and 0.00135 s⁻¹ | 53800 M⁻¹ s⁻¹ and 49100 M⁻¹ s⁻¹ | B2
67.6 nM and 74.2 nM | 0.00131 s⁻¹ and 0.00129 s⁻¹ | 19400 M⁻¹ s⁻¹ and 17400 M⁻¹ s⁻¹ | B3
166 nM and 181 nM | 0.00654 s⁻¹ and 0.00652 s⁻¹ | 39500 M⁻¹ s⁻¹ and 36100 M⁻¹ s⁻¹ | B1
195 nM and 197 nM | 0.00694 s⁻¹ and 0.0068 s⁻¹ | 35600 M⁻¹ s⁻¹ and 34500 M⁻¹ s⁻¹ | B5
46.4 nM | 0.00133 s⁻¹ | 28700 M⁻¹ s⁻¹ | B6
53.6 nM and 55.2 nM | 0.00158 s⁻¹ and 0.00151 s⁻¹ | 29400 M⁻¹ s⁻¹ and 27300 M⁻¹ s⁻¹ | B7

Binder | Kd | koff | kon
B4 | 22.8 nM and 23.3 nM | 0.00157 s⁻¹ and 0.00153 s⁻¹ | 68800 M⁻¹ s⁻¹ and 65900 M⁻¹ s⁻¹

The binders below were run against T4, STnMUC1 peptide, biotinylated (assay: SPR (Biacore T200): biotinylated STnMUC1 peptide (35-1) captured on CAP chip, scFv as analyte, 1:1 fit, average).
T4 construct: also called STn peptide; 35-1

Kd [nM] | koff [s⁻¹] | kon [M⁻¹ s⁻¹] | Binder
199 | 0.000435 | 2200 | B2
196 | 0.000423 | 2160 | B3
445 | 0.00117 | 2630 | B1
536 | 0.00122 | 2290 | B5

Target: T1, MUC1 peptide (non-glycosylated), …
Assay: SPR (Biacore T200), biotinylated peptide on CAP chip, scFv as analyte

binding result | Binder
no binding (tested: 500 nM) | B2
no binding (tested: 500 nM) | B3
no binding (tested: 500 nM) | B5
no binding (tested: 500 nM) | B6
no binding (tested: 500 nM) | B7

What follows are binders tested against T3, TnMUC1 peptide (fully glycosylated), … (assay: SPR (Biacore T200): biotinylated TnMUC1 peptide batch 65-1 captured on CAP chip, scFv as analyte).

Kd [nM] | koff [s⁻¹] | kon [M⁻¹ s⁻¹] | Binder
195 | 0.00633 | 32600 | B1

Each binder was assayed against T3, TnMUC1 peptide (fully glycosylated), … (assay: SPR (Biacore T200), peptide 36-2 on CAP chip, scFv as analyte, 1:1 fit; average, restated in nM).
Experimental: as §1, §2, §3

Kd [nM] | Binder
26.7 | B2
70.9 | B3
174 | B1
196 | B5
46.4 | B6
54 | B7

Binder | Kd [nM]
B4 | 23

The binders below were run against T3, TnMUC1 peptide (fully glycosylated), … (assay: SPR (Biacore T200), peptide 36-2 on CAP chip, scFv as analyte, 1:1 fit; average).
Experimental: as §1, §2, §3

Kd [nM] | koff [s⁻¹] | kon [M⁻¹ s⁻¹] | Binder
26.7 | 0.00137 | 51500 | B2
70.9 | 0.0013 | 18400 | B3
174 | 0.00653 | 37800 | B1
196 | 0.00687 | 35100 | B5
46.4 | 0.00133 | 28700 | B6
54.4 | 0.00155 | 28400 | B7

Binder | Kd [nM] | koff [s⁻¹] | kon [M⁻¹ s⁻¹]
B4 | 23 | 0.00156 | 67800

What follows are binders tested against T4, STnMUC1 peptide, biotinylated (assay: SPR (Biacore T200), STnMUC1 peptide on CAP chip, scFv as analyte).
Experimental: (§4) The CAP chip (from the Biotin CAPture kit) was docked into BIAcore T200 instrument to hydrate overnight, as per manufacturer instructions. When the chip is docked (for the first time or after storage), the surface of the sensor chip needs to be conditioned with 3×1 minute injections of Regeneration Solution (from the Biotin CAPture kit). Regeneration Solution was prepared by mixing 3 parts of Regeneration Stock 1 (8M Guanidine-HCl) with 1-part Regeneration Stock 2 (1M NaOH). Both the reference and active flow cells of the sensor chip were conditioned with 3×60 second injections of Regeneration Solution at a flow rate of 10 μl/min.
as §1

fold lower affinity than the murine 5E5 scFv protein [fold] | Binder
~10 | B3
~10 | B1
~10 | B5
~10 | B7

The binders below were run against T4, STnMUC1 peptide, biotinylated (assay: SPR (Biacore T200): biotinylated STnMUC1 peptide (35-1) captured on CAP chip, scFv as analyte).
Experimental: as §4, §1

Kd [nM] | koff [s⁻¹] | kon [M⁻¹ s⁻¹] | Binder
445 | 0.00117 | 2630 | B1

Target: T1, MUC1 peptide (non-glycosylated), …
Assay: Octet BLI, biotinylated peptide on streptavidin sensors
Experimental: Biotinylated MUC1 peptide (7-36-4) and TnMUC1 peptide (7-36-2) were diluted to 10 μg/ml in Octet Running Buffer (1×PBSF) and loaded onto Octet SA (streptavidin) sensors. The positive control proteins were tested in the Octet assay at a single concentration of 500 nM. All humanised anti-Tn MUC1 scFv expression supernatants were assayed neat.
Data was analysed using the data acquisition software fortéBIO version 8.0.2.5 and the data analysis software fortéBIO version 8.0.2.3.

Binder | binding result
B4 | no binding (tested: neat supernatant)

The binders below were run against T3, TnMUC1 peptide (fully glycosylated), … (assay: SPR (Biacore T200): biotinylated TnMUC1 peptide batch 65-1 captured on CAP chip, scFv as analyte, 1:1 fit, average).
Experimental: as §1, §2, §3

Kd [nM] | koff [s⁻¹] | kon [M⁻¹ s⁻¹] | Binder
48.6 | 0.00136 | 28000 | B2
40.7 | 0.00127 | – | B3
195 | 0.00633 | 32600 | B1
208 | 0.00698 | 33900 | B5

What follows are binders tested against T2, TnMUC1 peptide 1 (partially …) (assay: SPR (Biacore T200): biotinylated TnMUC1 peptide 1 (96-1) captured on CAP chip, scFv as analyte, 1:1 fit, average).
Experimental: as §1, §2, §3

Kd [nM] | koff [s⁻¹] | kon [M⁻¹ s⁻¹] | Binder
60.3 | 0.00135 | 22500 | B2
51.1 | 0.00131 | – | B3
231 | 0.00635 | 27500 | B1
250 | 0.00708 | 28500 | B5

Target: T4, STnMUC1 peptide, biotinylated
Assay: SPR (Biacore T200): biotinylated STnMUC1 peptide (35-1) captured on CAP chip, scFv as analyte
Remark: another data set of the same source

Kd [nM] | Binder
199 | B2
196 | B3
445 | B1
536 | B5

From patent US20230374151A1 (GlaxoSmithKline, published 2023)
